Data published in FireProtDB (doi:10.1074/jbc.m110728200).

Conditions: Homo sapiens; pH 2.7; Thermal; DSC; Gly-HCl 0.05 M; whole UniProt chain shown

B1: Lysozyme C wild type, P61626 (protein)
chain: MKALIVLGLVLLSVTVQGKVFERCELARTLKRLGMDGYRGISLANWMCLAKWESGYNTRATNYNAGDRSTDYGIFQINSRYWCNDGKTPGAVNACHLSCSALLQDNIADAVACAKRVVRDPQGIRAWVAWRNRCQNRDVRQYVQGCGV
- Tm: 64.9 °C
- heat capacity change of unfolding: 1.58 kcal/mol/K
- unfolding enthalpy (calorimetric): 114 kcal/mol
